Measured values: the supplement of paper PMC10567573
± gives the standard deviation.

Test: protein stability index of a GFP-peptide fusion (GPS, HEK-293T) (PSI 1-6); higher = more stable
Conditions: c terminus: a fixed tail appended
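Also: 24-mer peptide tiles fused after GFP, lentivirally expressed, FACS-sorted into six equal bins by GFP/DsRed ratio, decoded by Illumina sequencing, PSI is the read-weighted mean bin number.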

Sequence	protein stability index (treatment: DMSO)	protein stability index (treatment: MLN4924 1 uM, 8 h)
LGHAVLPSNARGPILSRSTSTGSA [SPRY1]	3.93 ± 0.18	4.15 ± 0.098
LGPSPQRDPQAVKERALSAPWLSL [ZNF263]	2.72 ± 0.14	2.77 ± 0.29
LGRFNDINVPIRLECVKFASHCLM [PDS5B]	2.83 ± 1.6	2.41 ± 0.94
LGTAIFIEADRRRAQLHVQGLLHE [SPNS1]	2.46 ± 0.36	2.17 ± 0.31
LGTENLHLIFSYSVWVLRDFPEDG [VPS39]	2.94 ± 0.46	2.74 ± 0.7
LGTRESDTEVITVEKSSPATSLFV [BCL2L13]	3.84 ± 0.15	4.04 ± 0.12
LHLAAQGRHAQTVETLLRHGAHIN [RIPK4]	2.4 ± 0.31	2.98 ± 0.51
LISKGANVNRTTANNDHTVLSLAC [ANKRD17]	2.82 ± 0.22	2.81 ± 0.27
LKAKLQMTEAALALSEQKAQDLGE [LRRC45]	4.51 ± 0.36	4.57 ± 0.28
LKIYNKREEDFPSLREYNDFLEEV [MNAT1]	3.19 ± 0.39	3.68 ± 0.72
LKRPVNVPFDIFTEEVKFYQLGEE [KCNA4]	3.01 ± 0.27	3.27 ± 0.37
LLAHRLRRWHKSRLLQASGGGLTG [PCDHGA10]	2.52 ± 0.47	2.07 ± 0.35
LLCWSVWWALSTCGYFQVVNYTQG [SLC19A2]	3.41 ± 0.59	3.61 ± 0.29
LLDEEEALAKKFIDKNTQLTLQVY [TRIM14]	2.53 ± 0.42	2.72 ± 0.34
LLEDDSDEEEDFFLRGPSGPRFGP [VAMP4]	3.97 ± 0.28	4.04 ± 0.39
LLEDPLCADVILVLQERVRIFAHK [RHOBTB2]	2.21 ± 0.21	2.5 ± 0.25
LLHSRNEGVATYAAAVLFRMSEDK [CTNNB1]	2.9 ± 0.36	3.22 ± 0.087
LLISCAVSYRGAWWYRNCHYANLN [TNXB]	2.97 ± 0.19	2.99 ± 0.72
LLKKKPPQQQHHKAKRNRTCRPPS [ANKRD17]	3.93 ± 0.22	4 ± 0.29
LLPNPYQQDFLGLPEELRRLSGLS [C22orf15]	2.91 ± 0.17	2.91 ± 0.34
LLPQERPLMQGPRTRPRKPIRCGE [KLHL20]	3.71 ± 0.35	3.98 ± 0.084
LLQGAGLDVERWLKPAMTQAQDEV [FCHSD1]	3.6 ± 0.28	3.54 ± 0.26
LLTGQCDFGSNCRFSHMSERDLQE [ZMAT5]	2.67 ± 0.21	2.78 ± 0.17

Sequence	protein stability index (treatment: DMSO)	protein stability index (treatment: MLN4924 1 uM, 8 h)
LNDIFHLLKSHTNVLSVNLPDNFT [TPH1]	2.35 ± 0.32	2.05 ± 0.41
LNLGPALSAALASSQKQHSFTSSD [C8orf76]	3.31 ± 0.31	3.35 ± 0.19
LNVQKTVDYTGQAKAQVRKAVQYE [STX11]	3.99 ± 0.11	4.09 ± 0.19
LPDPNNYYHRRNEMTTTDDLDFKH [CPXM2]	4.55 ± 0.23	4.7 ± 0.45
LPIIQSNQVSSNSWGIAGETELAL [DLC1]	3.52 ± 0.48	3.63 ± 0.2
LPLMDLCRRSVRLALGRERLGEIH [SPSB1]	2.56 ± 0.28	2.42 ± 0.29
LPPPCAALWCSGHLNGHAMCQTKH [ADAMTS4]	3.13 ± 0.24	3.17 ± 0.3
LPPPDPNPPRAEFNYSVGFKDLNE [APBB1IP]	4.42 ± 0.23	4.36 ± 0.075
LQCLQALYVDSLFFLRGRLDQLLR [PRAME]	2.09 ± 0.057	2.2 ± 0.61
LQGALDLLAVLCVDGSGRARQAAC [ZSWIM9]	2.2 ± 0.27	2.02 ± 0.18
LQLETVLEGVVSQIDAVGSKLKML [PKD2L1]	2.37 ± 0.42	2.37 ± 0.11
LQQDFQNIQETHRLYRLKLEELTK [TMEM120A]	3.3 ± 0.38	3.37 ± 0.28
LRAESDFEQLPDDVAISANIADIE [NCF4]	4.66 ± 0.28	5.21 ± 0.19
LRASGSLCGPHAKAPYLCEATHEP	2.84 ± 0.22	3.1 ± 0.27
LRDEHRCASKYGRDWERYTAAVPY [DHCR7]	2.67 ± 0.12	2.92 ± 0.2
LRLCAWGLASWPLARGIHVAGILS [POMT2]	2.3 ± 0.26	2.22 ± 0.2
LRLEWETQQELRKIREKEEWIKLD [IQUB]	3.12 ± 0.62	3.44 ± 0.63
LRLYKHNSQALLLHSSILTCTLLL [MFSD9]	2.74 ± 0.6	2.88 ± 0.67
LRQLVESDINSLRRILDELTLCRS [KRT33B]	2.31 ± 0.14	2.41 ± 0.15
LSFATRFHRLDEPPHICWDETHFG [POMT2]	2.25 ± 0.29	2.25 ± 0.26
LSGVDLELVGSGYRMSLVKRRFAT [FCHO1]	2.33 ± 0.2	2.37 ± 0.18
LSRYLIEPCGPGKSKLTYMCRVDL [DLC1]	2.99 ± 0.73	3.2 ± 1.3
